How the values were obtained:
[1] = target: DL06-HA, full length HA of A/duck/Laos/3295/2006(H5N1) (clade 2.3.4) (influenza A virus A/duck/Laos/3295/2006(H5N1)); experiment: cell-based or functional assay
[2] = target: native H5 HA from multiple H5N1 clades; experiment: cell-based or functional assay

B1: Mouse MAb 9F4 (antibody, V domains shown)
V domain 1: QQSEAELARPGASVKMSCKASGFTLTTFTIHWVKQRPGQGLEWIGYINPRSGYTDYNQKFKDNTTLTVDKSSSTAYMQLSSLTSEDSAVFYCARSYYDYDVFDYWGQGTTLTV
V domain 2: DVQMTQSPSSLSASLGGKVTITCTARQDINKYIAWYQHKPGKGPRLLIHYTSTLQPGIPSRFSGSGSGTDYSFTISNLEPEDIATYYCLQYDNLVTFGGGTK
IC50, entry of HA-pseudotyped lentiviral particles into MDCK cells (luciferase) [1]: 0.01 µg/mL
IC95, HApp neutralization [2]: 0.1 µg/mL

From patent publication US20170306001A1
